In article PMC5497592 (Biochemistry, 2011):

Biological target: the molecule itself
Assay: cross-linking

B1: HpUreI, the urea channel from Helicobacter pylori (natural protein)
chain: MLGLVLLYVGIVLISNGICGLTKVDPKSTAVMNFFVGGLSIICNIVVITYSALHPTAPVEGAEDIAQVSHHLTSFYGPATGLLFGFTYLYAAINHTFGLDWRPYSWYSLFVAINTIPAAILSHYSDMLDDHKVLGITEGDWWAIIWLAWGVLWLTAFIENILKIPLGKFTPWLAIIEGILTAWIPAWLLFIQHWV
  stoichiometry N: 3
